B1: Pfu DNA polymerase modified with N-etoxycarbonyl-2,3-dimethylmaleinimide: Native Pfu DNA polymerase reversibly inactivated with N-ethoxycarbonyl-2,3-dimethylmaleinimide, molar ratios 1/200 and 1/800 (protein, UniProt P61875 1-775, looked up)
DNA polymerase: MILDVDYITEEGKPVIRLFKKENGKFKIEHDRTFRPYIYALLRDDSKIEEVKKITGERHGKIVRIVDVEKVEKKFLGKPITVWKLYLEHPQDVPTIREKVREHPAVVDIFEYDIPFAKRYLIDKGLIPMEGEEELKILAFDIETLYHEGEEFGKGPIIMISYADENEAKVITWKNIDLPYVEVVSSEREMIKRFLRIIREKDPDIIVTYNGDSFDFPYLAKRAEKLGIKLTIGRDGSEPKMQRIGDMTAVEVKGRIHFDLYHVITRTINLPTYTLEAVYEAIFGKPKEKVYADEIAKAWESGENLERVAKYSMEDAKATYELGKEFLPMEIQLSRLVGQPLWDVSRSSTGNLVEWFLLRKAYERNEVAPNKPSEEEYQRRLRESYTGGFVKEPEKGLWENIVYLDFRALYPSIIITHNVSPDTLNLEGCKNYDIAPQVGHKFCKDIPGFIPSLLGHLLEERQKIKTKMKETQDPIEKILLDYRQKAIKLLANSFYGYYGYAKARWYCKECAESVTAWGRKYIELVWKELEEKFGFKVLYIDTDGLYATIPGGESEEIKKKALEFVKYINSKLPGLLELEYEGFYKRGFFVTKKRYAVIDEEGKVITRGLEIVRRDWSEIAKETQARVLETILKHGDVEEAVRIVKEVIQKLANYEIPPEKLAIYEQITRPLHEYKAIGPHVAVAKKLAAKGVKIKPGMVIGYIVLRGDGPISNRAILAEEYDPKKHKYDAEYYIENQVLPAVLRILEGFGYRKEDLRYQKTRQVGLTSWLNIKKS
modifications: modified with dimethylmaleinimide reagent

Key:
Taq DNA polymerase = Taq DNA polymerase (Thermus aquaticus, UniProt P19821); test: Polymerase activity assay: incorporation of [3H]-dTTP into the polynucleotide adsorbed on DE-81 in 30 min at 70° C.; assay type: biochemical; settings: aqueous solution
Chain of Taq DNA polymerase (P19821 whole entry): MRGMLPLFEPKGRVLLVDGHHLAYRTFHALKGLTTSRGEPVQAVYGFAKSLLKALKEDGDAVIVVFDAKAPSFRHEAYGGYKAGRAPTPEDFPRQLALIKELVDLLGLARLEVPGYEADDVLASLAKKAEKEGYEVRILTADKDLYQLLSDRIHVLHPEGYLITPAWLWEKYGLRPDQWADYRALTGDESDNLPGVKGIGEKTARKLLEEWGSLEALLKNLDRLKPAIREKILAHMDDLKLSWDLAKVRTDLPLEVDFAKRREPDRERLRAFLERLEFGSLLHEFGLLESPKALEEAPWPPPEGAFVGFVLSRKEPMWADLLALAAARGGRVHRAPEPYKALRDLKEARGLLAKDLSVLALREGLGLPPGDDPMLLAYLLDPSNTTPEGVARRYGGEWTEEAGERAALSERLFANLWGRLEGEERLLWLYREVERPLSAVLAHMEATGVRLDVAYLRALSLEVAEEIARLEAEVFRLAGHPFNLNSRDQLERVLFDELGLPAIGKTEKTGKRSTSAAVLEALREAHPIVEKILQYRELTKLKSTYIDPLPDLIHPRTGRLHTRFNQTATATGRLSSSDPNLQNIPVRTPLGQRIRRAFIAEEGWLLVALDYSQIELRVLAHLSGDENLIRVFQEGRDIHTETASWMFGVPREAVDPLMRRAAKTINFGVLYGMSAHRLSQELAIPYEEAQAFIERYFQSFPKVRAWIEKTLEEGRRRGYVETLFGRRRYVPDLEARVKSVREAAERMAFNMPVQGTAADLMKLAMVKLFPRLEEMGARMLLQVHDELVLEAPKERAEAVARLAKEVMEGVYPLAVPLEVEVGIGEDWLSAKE
Experimental: The measure of the enzyme activity was incorporation of [^3H]-dTTP into polynucleotide fraction. One unit of polymerase activity is defined as the enzyme amount which incorporates 10 nmoles of deoxyribonucleotides into the polynucleotide adsorbed on DE-81 in 30 min at 70° C.
For activity assays, Taq DNA polymerase was diluted up to 4 u/ml with the dilution buffer of the following composition: 20 mM Tris-HCl (pH 8.8 at 25° C.), 1 mM EDTA, 1 mM DTT, and BSA (0.1 mg/ml). Reactions were carried out at 70° C. for 30 min with 5 μl of the diluted enzyme in 50 μl of the reaction buffer of the following composition: 67 mM Tris-HCl (pH 8.8 at 25° C.), 50 mM NaCl, 6.7 mM MgCl2, 1 mM DTT, and BSA (0.1 mg/ml). The reaction buffer was supplemented with 0.2 mM dNTP, [3H]-dTTP (0.4 MBq/ml) and 0.75 mM activated DNA from calf thymus.
Activity of the modified enzymes was measured either with the pre-incubation step, or without it, for 10 min at 95° C. in the pre-heating buffer of the following composition: 20 mM Tris-HCl (pH 8.25 at 25° C.), 100 mM KCl, 2 mM MgCl2, 0.5% Tween 20, 0.5% Nonidet P40, and 16% glycerol.
(§1) Aliquots (35 μl) of the enzyme solution were mixed with 2.25 μl aliquots of the N-ethoxycarbonyl-2,3-dimethylmaleinimide solutions described above resulting in the following molar ratios of Taq DNA polymerase to N-ethoxycarbonyl-2,3-dimethylmaleinimide: 1/1280 1/640, 1/320, 1/160, 1/110, 1/80, 1/40. The mixtures were incubated for 20 hours at 4° C. to modify the Taq DNA polymerase. Control samples, in which the enzyme was left unmodified (e.g., the ratio was 1/0), were obtained by mixing the Taq DNA polymerase with a 2.25 μl aliquot of DMF. These control samples were incubated under the same conditions as the modified ones.
The samples of the unmodified Taq DNA polymerase and the modified Taq DNA polymerases were diluted 250-fold in the pre-heating buffer (see Example 2) and activities of the modified enzyme were measured both before heat-reactivation and after it, as described in the Example 2. Activities of both inactivated and heat-reactivated DNA polymerases were determined as described in the Example 2, and the data were normalized to activity of the unmodified Taq DNA polymerase
Aliquots (20.6 μl) of the diluted enzyme solution were mixed with 1 μl of N-isobutoxycarbonyl-2,3-dimethylmaleinimide solutions described above resulting in different molar ratios of Taq DNA polymerase to N-isobutoxycarbonyl-2,3-dimethylmaleinimide (1/320, 1/160, 1/80 and 1/40). The mixtures were incubated 20 hours at 4° C. to modify the Taq DNA polymerase. Control samples, in which the enzyme was left unmodified (e.g., the ratio was 1/0), were obtained by mixing the Taq DNA polymerase with a 1 μl aliquot of DMF. These control samples were incubated under the same conditions as the modified ones. The heat-reactivation of the modified enzymes was performed as described in the Example 3.

Pfu DNA polymerase = biological target: T1, Pfu DNA polymerase (Pyrococcus furiosus, UniProt P61875); test: Polymerase activity assay: incorporation of [3H]-dTTP into the polynucleotide adsorbed on DE-81 in 30 min at 50° C. or 72° C.; assay type: biochemical; settings: aqueous solution
T1 construct: Native Pfu DNA polymerase was used at initial concentration of 1.065 mg/ml
T1 sequence (P61875 1-775): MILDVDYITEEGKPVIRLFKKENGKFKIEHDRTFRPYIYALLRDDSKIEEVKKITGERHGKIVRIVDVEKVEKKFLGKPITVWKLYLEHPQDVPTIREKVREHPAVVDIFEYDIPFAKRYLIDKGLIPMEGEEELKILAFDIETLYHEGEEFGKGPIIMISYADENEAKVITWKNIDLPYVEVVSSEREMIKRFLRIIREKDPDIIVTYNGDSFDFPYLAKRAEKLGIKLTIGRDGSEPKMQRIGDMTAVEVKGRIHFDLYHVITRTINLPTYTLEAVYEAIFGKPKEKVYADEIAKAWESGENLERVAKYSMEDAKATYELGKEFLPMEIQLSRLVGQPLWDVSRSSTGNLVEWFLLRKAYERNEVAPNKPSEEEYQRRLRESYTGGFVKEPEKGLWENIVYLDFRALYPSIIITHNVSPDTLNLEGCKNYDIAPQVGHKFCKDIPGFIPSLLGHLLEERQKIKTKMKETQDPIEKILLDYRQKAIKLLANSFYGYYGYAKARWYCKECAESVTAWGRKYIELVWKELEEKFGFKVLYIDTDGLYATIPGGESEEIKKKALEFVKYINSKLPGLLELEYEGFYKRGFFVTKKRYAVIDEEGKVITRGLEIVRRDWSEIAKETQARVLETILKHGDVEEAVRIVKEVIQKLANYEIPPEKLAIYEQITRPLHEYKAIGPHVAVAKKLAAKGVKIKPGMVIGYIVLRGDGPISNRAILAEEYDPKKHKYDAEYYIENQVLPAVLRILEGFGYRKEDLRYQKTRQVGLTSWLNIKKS
Experimental: as §1, with “A set of N-ethoxycarbonyl-2,3-dimethylmaleinimide solutions (72 mM, 18 mM) was prepared by serial dilutions of the 720 mM stock in N,N dimethylformamide (DMF). Aliquots” for “Aliquots”, “(25” for “(35”, “1” for “2.25”, “Pfu” for “Taq”, “1/800, 1/200.” for “1/1280 1/640, 1/320, 1/160, 1/110, 1/80, 1/40.”
The samples of the unmodified Pfu DNA polymerase and the modified Pfu DNA polymerases were diluted in the pre-heating buffer (see Example 2) either 9-fold for measurements at 50° C., or 24-fold for measurements at 72° C. (see Example 2). Activities of the modified enzymes were measured either with the pre-incubation step, or without it, for 10 min at 95° C.
For activity assays, Pfu DNA polymerase was diluted up to 11 u/ml (91 u/ml for measurements at 50° C.) in the dilution buffer (see Example 2). Reactions were carried out either at 50° C., or at 72° C. for 30 min. Aliquots (5 μl) of the diluted enzyme were added to 50 μl of the reaction buffer of the following composition: 20 mM Tris-HCl (pH 8.8 at 25° C.), 10 mM (NH4)2SO4, 10 mM KCl, 2 mM MgCl2, 0.1% Triton X-100, and BSA (0.1 mg/ml) supplemented with, 0.2 mM dNTP, [3H]-dTTP (0.4 MBq/ml) and 0.75 mM activated DNA from calf thymus.

[1] = molar ratio Taq DNA polymerase/N-iso-butoxycarbonyl-2,3-dimethylmaleinimide 1/40
[2] = molar ratio Taq DNA polymerase/N-iso-butoxycarbonyl-2,3-dimethylmaleinimide 1/80
[3] = molar ratio Taq DNA polymerase/N-iso-butoxycarbonyl-2,3-dimethylmaleinimide 1/160
[4] = molar ratio Taq DNA polymerase/N-iso-butoxycarbonyl-2,3-dimethylmaleinimide 1/320
[5] = molar ratio Pfu/N-etoxycarbonyl-2,3-dimethylmaleinimide 1/200
[6] = molar ratio Pfu/N-etoxycarbonyl-2,3-dimethylmaleinimide 1/800

Molecule	Activity at 70° C. (%) After 10 min. preheating at 95° C. (Taq DNA polymerase; [1])	Activity at 70° C. (%) Without preheating at 95° C. (Taq DNA polymerase; [1])	Activity at 70° C. (%) After 10 min. preheating at 95° C. (Taq DNA polymerase; [2])	Activity at 70° C. (%) Without preheating at 95° C. (Taq DNA polymerase; [2])	Activity at 70° C. (%) After 10 min. preheating at 95° C. (Taq DNA polymerase; [3])	Activity at 70° C. (%) Without preheating at 95° C. (Taq DNA polymerase; [3])	Activity at 70° C. (%) After 10 min. preheating at 95° C. (Taq DNA polymerase; [4])	Activity at 70° C. (%) Without preheating at 95° C. (Taq DNA polymerase; [4])	Activity at 50° C. (%) After 10 min. preheating at 95° C. (Pfu DNA polymerase; [5])	Activity at 50° C. (%) Without preheating at 95° C. (Pfu DNA polymerase; [5])	Activity at 72° C. (%) After 10 min. preheating at 95° C. (Pfu DNA polymerase; [5])	Activity at 50° C. (%) After 10 min. preheating at 95° C. (Pfu DNA polymerase; [6])	Activity at 50° C. (%) Without preheating at 95° C. (Pfu DNA polymerase; [6])	Activity at 72° C. (%) After 10 min. preheating at 95° C. (Pfu DNA polymerase; [6])
Taq DNA polymerase treated with N-iso-butoxycarbonyl-2,3-dimethylmaleinimide: Recombinant Taq DNA polymerase modified with N-isobutoxycarbonyl-2,3-dimethylmaleinimide in aqueous solution, molar ratios 1/40 to 1/320	~90%	~50%	~100%	~40%	~80%	~30%	~40%	~10%	–	–	–	–	–	–
B1	–	–	–	–	–	–	–	–	~100%	~20%	~100%	~100%	~0%	~90%

Reference: patent publication US9273304B2, “Inactivation method” (Thermo Fisher Scientific Baltics UAB, priority 2006, dated 2016)
